From the nanobody polyreactivity screen of Harvey et al. (2022)

Test: yeast display, Sf9 membrane polyspecificity reagent, FACS + sequencing; frameworks hold sequencing errors
Summary of the method: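 Genes from sorted yeast were amplified by colony PCR, read by MiSeq 2 × 250 sequencing and filtered on CDR length. These cells carried a synthetic nanobody library in Saccharomyces cerevisiae BJ5465 and were sorted by FACS into low and high (top ~1%) gates on anti-HA and streptavidin fluorescence. Polyreactivity is labelled according to the gate of origin.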

Row | Sequence | polyreactivity (PSR sort gate)
1 | QVQLVESGGGLVQAGGSLRLSCAASGSTFSGYAMGWYRQAPGKARELVAAISWRGVRTYYADSVKGRFTISRDNAKNTVYLQMNSLKPEDTAVSYCAAVRYITKEFSWGQGTQVTVSW | high polyreactivity
2 | QVQLVESGGGLVQAGGSLRLSCAASGSTFSGYAMGWYRQAPGKERELVAAISTDDTYYADSVKGRFTISRDNPKNTVYLQKNSLKPEDTAVYYCAADYLGYYGLEEHWGQGTQVTVSS | high polyreactivity
3 | QVQLVESGGGLVQAGGSLRLSCAASGSTFSGYAMGWYRQAPGKERELVAAISWSGGRTYYADSVKGRFTISRDNAKNTVYLQMNSLKPEDTAVYYCAAVRKSAYEYWGQGTQVTVSS | high polyreactivity
4 | QVQLVESGGGLVQAGGSLRLSCAASGSTFSGYAMRWYRPAPGKERELVAAISWSGGSTYYADSVKGRFTISRDNAKNTVYLQMNSLKPEDTSVNYCNALESTIRGYPYDYWGQGTQVTVSS | low polyreactivity
5 | QVQLVESGGGLVQAGGSLRLSCAASGSTFSHNAMGWYRQAPGKERELVAAISTSGSRTYYADSVKGRFTISRDNAKNSVYLQMNSLKPEDTAVYYCNTVPIYYSGYDYWGQGTQVTVSS | high polyreactivity
6 | QVQLVESGGGLVQAGGSLRLSCAASGSTFSHYTMGWSRQAPGKERELVAAINYGGASTYYADSVKGRFTISRDNAKNTVFLHMNSLKPEDTSVYYCAAANRPSEQDNYWGQGTQVTVSS | low polyreactivity
7 | QVQLVESGGGLVQAGGSLRLSCAASGSTFSKNAMGWYREAPGKERELVAAISGSGGSTYYADSVKGRFTISRDNAKKTVYLQMNSLKPEESAVYYCAARYSGRRYGYWGQGTQVTVSS | high polyreactivity
8 | QVQLVESGGGLVQAGGSLRLSCAASGSTFSKNAMGWYRQAPGKERELVASISTDGDSTYYADSVKGRFTISRDNAKNTVYFQMNSLKPEDTAVYYCNVVYYGRTWVPYVWEYDYWGQGTQVTVSS | low polyreactivity
9 | QVQLVESGGGLVQAGGSLRLSCAASGSTFSKYAMGWYRQAPGKERELVATISSTGSTNYADSVKGRFTISRDNEKNTVYLQMNSLKPEDTAVYDCNAGRRGRPYYKYYYWGQGTQVTVSS | high polyreactivity
10 | QVQLVESGGGLVQAGGSLRLSCAASGSTFSKYAMGWYRQAPWKESELVASITWSGGSTYYADSVKGRFTISRDNAKNTVYLQMNSLIPEDTAVYYCNVRTIQYNVGRWWEYDYWGQVTQVTVSS | low polyreactivity
11 | QVQLVESGGGLVQAGGSLRLSCAASGSTFSLNDMGWYRQAPGKERELVAVISSSTGITYYADSVKGRFTISRDNAKNTVYLQMNSLKPEDTAVYYCNADKWEVYYTRMYYWGQGTQVTVSS | low polyreactivity
12 | QVQLVESGGGLVQAGGSLRLSCAASGSTFSLNDRGWYRQAPGKERELVAVISSSTGITYYADSVKGRFTISRDNAKYTVYLQMNSLKPEDTAVYYCNADKWEVYYTRMYYWGQGTQVTVSS | low polyreactivity
13 | QVQLVESGGGLVQAGGSLRLSCAASGSTFSLYAMGWYRQAPGKERELVAAISKRGDDTYYADSVKGRFTISRDNAKNTVYLQMNSLKPEDTAVYYCAAEYAAYEYRYWWYDYWGQGTQVTVSS | high polyreactivity
14 | QVQLVESGGGLVQAGGSLRLSCAASGSTFSLYAMGWYRQAPGKERELVADINSGGGTYYADSVKGRFTISRDNAKNTVYLQMNSLKPEDTAVYYCTAASSWSYFWYDYWGQGTQVTVSS | high polyreactivity
15 | QVQLVESGGGLVQAGGSLRLSCAASGSTFSNNARGWYRQAPGKERELVAAISRSGGSTYYADSVKGRFTISRDNAKNTVYLQMNSLKPEDTAVYYCAAYAPYYRTMDYWGQGTQVTVSS | high polyreactivity
16 | QVQLVESGGGLVQAGGSLRLSCAASGSTFSNYAMGWYRQAPGKERELVASISNGGSTNYADSVKGRFTISRDNAKNNVYLQMNSLKPEDTAVYYCNAESKAKYDYWGQGTQVTVSS | low polyreactivity
17 | QVQLVESGGGLVQAGGSLRLSCAASGSTFSPNAMGWYRQAPGKERELVAAITYRGANTYYADSVKGRFTISRDNEKNTVYLQMNSLKPEDTAVYYCAAEYAYHHVGFGYWGQGTQVTVSS | low polyreactivity
18 | QVQLVESGGGLVQAGGSLRLSCAASGSTFSPYAMGWYRQAPGKERELVANITISGGSTYYADSVKGRFTISRDNAKNTVYLQMNSLKPEDTAVYYCNADSLIRWLFTVVIFDYWGQGTEVTVSS | low polyreactivity
19 | QVQLVESGGGLVQAGGSLRLSCAASGSTFSQNAMGWYRQAPGKERELVAAITSGGITYYADSVKGRFTISRDNAKNTVYLQMNSLKPEDTAVYYCAADFWPSGRGVAFDYWGQGTQVTVSS | low polyreactivity
20 | QVQLVESGGGLVQAGGSLRLSCAASGSTFSQYAMGWYRQAPWKERELVAAITSTGGSTYYADSVKGRFTISRDNAKNTVYLQMNSLKPEDTAVYYCYPYIRDPKYNYWGQATQVTVSS | low polyreactivity
21 | QVQLVESGGGLVQAGGSLRLSCAASGSTFSQYVMGWYRQAPAKERELVAAISSGGSTYYADSVKGRFTISRDNAKNTVYLQMNSLKPEDTAVYYCAAKYDGSYVGLYWYSMNYWGQGTQVTVSS | low polyreactivity
22 | QVQLVESGGGLVQAGGSLRLSCAASGSTFSRNAMGWSRQAPGKERELVAAISWRGGRTYYADSVKGRFTISRDNAKNTVYLQMNSLKPEDTAVYYCAAEHKYRYDYWGQGTQVTVSS | low polyreactivity

Row | Sequence | polyreactivity (PSR sort gate)
23 | QVQLVESGGGLVQAGGSLRLSCAASGSTFSRNAMGWYRQAPGKERELVAAINYSGGITYYADSVKGRFTISRDNAKNTVYLQMNSLKPADTAVYYCAKRGIGDPGQHPLGFGYWGQGTQVTVSS | low polyreactivity
24 | QVQLVESGGGLVQAGGSLRLSCAASGSTFSRYAMGWYRQAPGKERELVAAISSNGGRTYYADSVKGRFTISRDNAKNTVYLQMNSLKPEDTAVYYCAAVNYLTMDYWGQGTQVTVSS | high polyreactivity
25 | QVQLVESGGGLVQAGGSLRLSCAASGSTFSRYAMGWYRQAPGKERELVAAISSRGGSTYYADSVKGRFTISRDNAKNTVYLQMNSLKPEDTAVYYCNALSSYQNHVYPYDYWGQGTQVTVSS | high polyreactivity
26 | QVQLVESGGGLVQAGGSLRLSCAASGSTFSRYAMGWYRQAPGKERELVAAISTRGGSTRYADSVKGRFTISRDNAKNTVYLQMNSLKPEDTAVYYCAALGQGRTSATSFVDYEYWGQGTQVTVSS | high polyreactivity
27 | QVQLVESGGGLVQAGGSLRLSCAASGSTFSRYAMGWYRQAPGKERELVAAITRSGGSTYYADSVKGRFTISRDNAKNTVYLQMNSLKPEDTAVYYCAASRGRGGYGFDYWGQGTQVTVSS | high polyreactivity
28 | QVQLVESGGGLVQAGGSLRLSCAASGSTFSSLIMGCYRQAPGKERELVAAISRSGGRTYYADSVKGRFTISRDNAKNTVYLQMNSLKPEDTAVYYCAADYVSVDRIRYGYWGQGTQVTVSS | high polyreactivity
29 | QVQLVESGGGLVQAGGSLRLSCAASGSTFSSNAMGWYRKAPGKERELVAAISVNGGSTNYADSVKGRFTISRDNAKNTVYLQMNSLKPEDTAVYYCAAEPAKVAFYRGDYWGQGTQVTVSS | low polyreactivity
30 | QVQLVESGGGLVQAGGSLRLSCAASGSTFSSNAMGWYRQAPGKERELVAAISWSGASTYYADSVKGRFTISRDNAKNTVYLQMNSLKPEDTAVYYCATVWQAKYYGNHRFGYWGQGTQVTVSS | low polyreactivity
31 | QVQLVESGGGLVQAGGSLRLSCAASGSTFSSNAMGWYRQAPGKERELVAAITTSGGSTYYADSVKGRFTISRDNAKNTVYLEMNSLKPEDTAVYYCAADLVHASQWSIFLYGYWGQGTQVTVSS | low polyreactivity
32 | QVQLVESGGGLVQAGGSLRLSCAASGSTFSSSAMGWYRQAAGKERELVAAITSSGGSPYYADSVKGRLTISRDNAKNTVYLQMNSLKPEDTAVYYCAAADVIFWLYYYWGQGTQLTVSS | low polyreactivity
33 | QVQLVESGGGLVQAGGSLRLSCAASGSTFSSYAMGWYRQAPGKEREFVAAINTDGGSTYYADSVKGRFTISRDNAKNTVYLQMNSLKPEDTAVYYCAARYYWPWYSSYDYWGQGTQVTVSS | low polyreactivity
34 | QVQLVESGGGLVQAGGSLRLSCAASGSTFSSYAMGWYRQAPGKERELVAAISKHAGSTYYADSVKGRFTISRDNAKNTVYLQMNSLKPEDTAVYYCAKDSSVQAYYGYWYTSTDDYWGQGTQVTVSS | low polyreactivity
35 | QVQLVESGGGLVQAGGSLRLSCAASGSTFSSYAMGWYRQAPGKERELVAAISSRGGRTYYADSVKGRFTISRDNAKNTVYLQMNSLKPEDTAVYYCAVVPFTEHDYWGQGTQVTVSS | high polyreactivity
36 | QVQLVESGGGLVQAGGSLRLSCAASGSTFSSYAMGWYRQAPGKERELVAGISWGGSSTDYADSVKGRFTISRDNAKNTVYLQMNSLKPEDTAVYYCARRYRRGWSTLDYWGQGTQVTVSS | low polyreactivity
37 | QVQLVESGGGLVQAGGSLRLSCAASGSTFSSYTMGWYRQAPGKERELVAAISRSGGRTYYADSVKGRFTISRDNAKNTVYLQMNSLKPEDTAVYYCNAGLGIEYDYWGQGTQVTVSS | low polyreactivity
38 | QVQLVESGGGLVQAGGSLRLSCAASGSTFSSYVMGWDRQAPGKERELVAAISSIGGSTYYADSVKGRFTISRDNAKNTVYLQMNSQKPEDTAVYYCPAEPPGSTYEGGYWGQGTQVTVSS | low polyreactivity
39 | QVQLVESGGGLVQAGGSLRLSCAASGSTFSTNAMGWYRPAPGKERELVAAISRSGGSTYYADSVKGRFTHSRDNEKNTVYLHMNSLKPEDTAVYYCARVSGYRYDYWGQGTQVTVSS | high polyreactivity
40 | QVQLVESGGGLVQAGGSLRLSCAASGSTFSTNAMGWYRQAPGKERELVAAIRWRGGRTYYADSVKGRFTISRDNAKNTVYLQMNSLKPEDTAVYYCAADYSFTGHRYTYGYWGQGTQVTVSS | high polyreactivity
41 | QVQLVESGGGLVQAGGSLRLSCAASGSTFSTNAMGWYRQAPGKERELVAAISRSGGSTYYADSVKGRFTISRDNAKNTVYLQMNSLKPEDTAVYYCARYSYRGTNVRYDYWGQGTQVTVSS | high polyreactivity
42 | QVQLVESGGGLVQAGGSLRLSCAASGSTFSTNAMGWYRQAPGKERELVAAISWSDDDTYYADSVKGRFTISRDNAKNTVYLQMNSLKPEDTGVYYCAAEGVGPARVYQGGEYNYWGQGTQVTVSS | low polyreactivity
43 | QVQLVESGGGLVQAGGSLRLSCAASGSTFSTNAMGWYRQAPGKERELVASITRSGGSTYYADSVKGRFTISRDNAKNTFYLLMNSLKPEDTAVYYCNADGYYDYDYGYWGQGTQVTVSS | low polyreactivity
